Test results from the nanobody polyreactivity screen of Harvey et al. (2022).

Experiment: yeast display, Sf9 membrane polyspecificity reagent, FACS + sequencing; frameworks hold sequencing errors
Procedure, shortened: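 Genes from sorted yeast were amplified by colony PCR, read by MiSeq 2 × 250 sequencing and filtered on CDR length. These cells carried a synthetic nanobody library in Saccharomyces cerevisiae BJ5465 and were sorted by FACS into low and high (top ~1%) gates on anti-HA and streptavidin fluorescence. Polyreactivity is labelled according to the gate of origin.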

Sequence	polyreactivity (PSR sort gate)
QVQLVESGGGLVQAGGSLRLSCAASGRTFYLYAMGWYRQAPGKEREFVAAISKRGGSTYYADSVKGRFTISRDNAKNTVYLQMNSLKPEDTAVYYCAAEVFRYRLNQTPTYRGDYWGQGTQVTVSS	high polyreactivity
QVQLVESGGGLVQAGGSLRLICAASGFIFFINDMGWYRQAPGKERELVAAISWSCGSTYYADSVKGRFTISRDNAKNTVYLQMNSLKPEDTAVYYCNTDVPTAQYDYWGQGTQVTVSS	low polyreactivity
QVQLVESGGGIVQAGGSLRLSCAASGRTTSVYAIGWYRQAPGKERELVAAINRSDGGTYYADSVKGRFTISRDNAKNTVYLQMNRLQPEDTAVYYCNAVVLYGWYGRRYSSRLDYWGQGTQVTVSS	high polyreactivity
QVQLVESGGGLVQAGGSLRLSCAASGSIFGYNAMGWYRQAPATERELVATIRNGGITNYADSVKGRFTISRDNAKNTVYLQMNSLKPEDTAVYYCAADVVQYLYYFRLDYWGQGTQVTVSS	low polyreactivity
QVQLQESGGSLVQAGGSLRLSCAASGNILVLPHGLVSPGAERELVATITGGSITYYADSVKGRFTISRDNAKNTVYLQMNSLKPGDTDVYYCAVINIYHRPHPYWGQGTLVTVSS	high polyreactivity
QVQLVESGGGLVQAGGSLRLSCAASGSTFPFYALGWYRQAPGKERELVAVIRGSGGRTYYADSVKGRFTISRDNAKTTVYLQMNSLKPEDTAVYYCAVKLARLYDSGYNYWGQGTQVTVSS	high polyreactivity
QVQLVESGGGLVQAGGSLRLSCAASGSTFRYYTMGWYRQAPGKERELVAAITYSGGSTYYADSVKGRFTISRDNAKNTVYLQMNSLKPEDTAVYYCAKRWSQPKYDYWGQGTQVTVSS	high polyreactivity
QVQLVESGGGLVQAGGSLRLSCAASGSIFYSYAMGWYRQAPGKEREFVAAISWSASRTYYADSVKGRFTISRDNAKNTVYLQMNSLKPADTAVYDCAARTYYNRGYYYWGQGTQVTVSS	high polyreactivity
QVQLVESGGGLVQAGGSLRLSCAASGSTVDANAMGWYRPAPGKERELVATISDGGSTNYADSVKGRFTISRDNAKKTVYVQKNSLKPEDTAVYYCAAVKLFLGLGYDYWGQGTQVTVSS	low polyreactivity
QVQLVESGGGLVQAGGSLRLSCAASGITFNRYAMGWYRQAPGKERELVAGISRGVSTYYADSVKGRFTISRDNAKNTVYLQMKSLKPEDTAVYYCAAKPVVRYVSFGYDYWGQGTQVTVSS	high polyreactivity
QVQLVESGGGLVQAGGSLRLSCAASGRIFRVYAMGWYRQAPGKERELVAAISSRGGRTYYADSVKGRFTISRDNAKNTVYLQMNSLKPEDTAVYYCAADGRSSSRATSRYDYWGQGTQVTVSS	high polyreactivity
QVQLVESGGGLVQAGGSLRLSCAASGLIFTVNAMGWYRQAPGKDRELVAAISGGDSTNYADSVKGRFTISRDNAKNTVYLQMNSLKPEDTAVYYCAVRGRAQYTSRRYGYWGQGTQVTVSS	high polyreactivity
QVQLVESGGGLVQAGGSLRLSCAASGSIFGWNTMGWYRQAPGKERELVASISRRGGSTHYADSVKGRFTISRDNAKNTVYLQMNSLKPEDTAVYYCAKVRYQGNGGYYWGQGTQVTVSS	high polyreactivity
QVQLVESVVGLVQAGGSLPISCAASGSTFSANDMVWYSQPHGTERELVAAIDTGGTTYYADSVKGRFTISRDNAKNTVYLQMNSLKPEYTAVYYCNATIWYRDYGYWVQGTQVTVSS	low polyreactivity
QVHHVESAGRLVQAGGILRLICPASGFTFGHYVMGWYRQEPGKERELLAAITLSGGGTYYADSVKGRFTISRDNAKNTGYLQMNSLKPQDTAVYYCAAVGGDHAKITYSRYKVDYWGQGTQVTVSS	low polyreactivity
QVQLVESGGGLVQAGGSLRLSCAASGFIFGYYAMGWYRQAPGKERELVAAISWSGGSTYYADSVKGRFTISRDNAKNTVYLQMNSLKPEDTAVYYCATASPSTRYGRLGDYWGQGTQVTVSS	low polyreactivity
QVQLVESGGGLVQAGGSLRLSCAASGRTFRPNAMGWYRQAPGNERELVASITRRGGTTYYADSVKGGFTISRDNAKNTVYLHMNSLKPEDTAVYYCNAPPGYSSTRNGYWGQGTQVTVSS	high polyreactivity
QVQLVESGGGLVKAGVSLRLICAASGSTFDGNDMGWYRQAHGKERELVATINSDDSKNYADSVKGRFTISRDNAKNTVYLQMNSLKPEDTAVYYCAARLYVTPILSYVERYTNDYWGQGTQVTVSS	low polyreactivity
QVQLVESGGRLVQAGGSLRLSCAASGRIFGYYAMGWYRQAPGKERELVAAISSGGNTYYADSVKGRFTISRDNAKNTVYLQMNSLKPEDTAVYYCNEVYVGWQYGYDYWGQGTQVTVSS	low polyreactivity
QVQLVESGGGLVQAGGSLRLSCAATGRTSTYYPMGWYRQAPGKERELVAAIRSGTITNYADSVKGRFTISRDNAKNTVYLQMNSLKPEDSAVYYCAAKYRYSTYHRGSFNYWGQGTQVTVSS	high polyreactivity
QVQLVESGGGLVQAGGSLRLSCAASGFTISSYVMGWYRQAAGKEREVVAAISSSGARTYYADSVKGRFTISRDNAKNTVYLQMNSLKPEDTAVYYCAADNSPRPYDYWGQGTQVTVSS	high polyreactivity
QVQLVESGGGLVQAGGSLRLSCAASGSIFGENAMGWYRQAPGKERELVAAITWSGASTYYADSVKGRFTISRDNAKNTVYLQMNSLKPEETAVYYCNADRYVRYSTFDYWGQGTQVTVSS	high polyreactivity

Sequence	polyreactivity (PSR sort gate)
QVQLVESGGGLVQAGGSLRLSCAASGFTFYTYAMGWYRQAPGKERELVADISSGGSTNYADSVKGRFTISRDNAKNTVYLQMNSLKPEDTAVYYCSADYYFLDWYDYWGQGTQVTVSS	low polyreactivity
QVQLVESGGGLVQAGGSLRLSCAASGMGWYRQAPGKERELVAAITSTDGSTYYADSVKGRFTISRDNAKNTVYLQMNSLTPEDTAVYYCAVEPYLWPVFSDDDYWGQGTQVTVSS	low polyreactivity
QVQLVESGGGLVQAVGSLLLSCAASGITFRYYAMGWYRQAPGKERELVARITTDGSTHYADSVMGRFTISRDNAKNTVYLQMNSLKPEDTAVYYCNVDGYYLFVRGYEYWGLGTQVTVSS	low polyreactivity
QVQLVESGGVLVQAGASLRLSCAASGLTFAVYTMGGYRQAPGKEMELVAAITWDGGITYYADSVKGRFTISRDNAKYTVYLQMNSLKPEDTAVYYCAADYALGEVYWYNYWGQGTQVTVSS	low polyreactivity
PVQLVESGGVLVQAGCILRLSCAASGSTFYGYAMGWYRQAPGKERELVAANTSTVITDYADSVKGRFTISRDNAKNTFYFQMNSLKPEVPAVYDCNKERATSVTAEFRGDDAYWVQGTQVTVSS	low polyreactivity
QVQLVESGGGLVQAGGSLRLSCAASGSIFGGYTMGWYRQAPGKERELVAAISARGGNTYYADSVKGRFTISRDNAKNTVYLQMNSLKPEDTAVYYCAKVRYTQSYRGYGYWGQGTQVTVSS	high polyreactivity
QVQLVESGGGLVQAGGSLRLSCAASGSTIPGNAMGWYRQAHGKERELVASISGGGDSTYYADSVKGRFTISRDNAKNTVYLQMKSLKPEDTAVYYCAADYRQEPGYTGYYYLGQGTQVTVSS	low polyreactivity
QVQLVESGGGLVQAGGTLRISCAASGSTAYVMGWYRQAPGKEMELVAAISKSGGSTYYADSVKGRFTISRDNAKNTVYLQMNSLKPEDTAVYYCAALYPTTTAYRYGYWGQGTQVTVSS	high polyreactivity
QVQLQESGGGQVQAGGTITLGYDMGWYRQAPGKEREFVAGIDTGAITYYADSVKGRFTNSRDNAKNTVYLQMNSLKPEDTAVYYCAAIQTHTYAHSYWGQGTQVTVSS	high polyreactivity
QDQLVESRGGLVQAGVSLRLSCAASGIIFAENAMGWYRQAPGKERELVAAITWNGGRTYYADSVKGRFTISRDNAKNTVYLQMNSLKPEDTAVYYCNAVTVYYRIYEYWGQGTQVNVSS	high polyreactivity
QVQLVESGGGLVQAGGSLRLSCAASGLTFLNKAMGWYREAPGKERELVAAISRGGSTNYADSVKGRFTISRDNAKNTVYLQMNSLKPQDTAGYYCAAQIFESAYGMDYWGQGTQVTVSS	low polyreactivity
QVQLVESGGGLVQAGGSLRLSCAASGSTFDYNAMGWYRQAPGKERELVAAISSGGRTYYADSVKGRFTISRDNAKNTVYLQMNSLKPEDTAVYYCAKARTLRYDSWGQGTQVTVSS	low polyreactivity
QVQLVESGGGLVQAGGSLRLICAASGLTFRVYTMGWYRQAPGQERELVASISRSGASTYYADSVKGRFTISRDNAKNTVYLQMNSLKPEDTAVYYCNAVTSWPRRDFDYWGQGTQVTVSS	high polyreactivity
QVQLVESGGGLVQAGGSLRLSCAASGRIFFYNGMGWYRQAPGKERELVAAINRSGGSTYYADSVKGRFTISRDNAKNTVYLQMNSLKPVDTAVYYCNAASFTVPMDFWGQGTQVTVSS	low polyreactivity
QVQLVESGGGLVQAGGSLRLSSAASGITYTPNAMGSYRQAPGKEREFVAAISVSGGSTYYADSVKGRFTISRDNAKYTVYLQMNSLKPEDTAVYYCATDFRRYAAKLYRYYYWGLGTQVTVSS	high polyreactivity
QVHLVESGGGLVQAGGSLRLSCAASGSTFAKNAMGWYRQAPGKERELVAAITRSAGSTYYADSVKGRFTISRDNAKNTVYLQMNSLKPEDTAVYYCDRRVSGTPWYGYWGQGTQVTVSS	high polyreactivity
QVQLVESGGGLVQAGGSLRLSCAASGSTFGHYAMGWYRPAPGKERELVAGITDTDNHELRRLCEGRFTISRDNAKNTVYLQMNSLKPEDTAVYYCIADDTYYPLGGITGYDDWGQGTQVTVSS	low polyreactivity
QVQLVESAGGLVQAGGSLSLSCAASGFNFKGYAMGSYRQAPGKERELVAAISSSGTSTYYADSVKGRFTISRDNEKNTVYLQMNSLKPEDTAVYYCARVSKRTWSGYYYWGQGTQVTVSS	high polyreactivity
QVQLVESGGGLVQAGGSLRLSCAATGRIFYYYTMGWYRQAPGKERELVAAISWGGVNTDYADSVKGRFTISRDNAKNTVYLQMNSLKPEDTAVYYCAAGRWSVGTYDYWGQGTQVTVSS	low polyreactivity
QVQLVESGGGIVQAGGSLRLSCAASGRTFPGYAMGWSRQAPGKERELVATITFSDGSTYYADSVKGRFTISRDNAKNTVYLQMNSLKPEDTAVYYCNARRSYFLRYGVNYWGQGTQVTVSS	low polyreactivity
QVQLVESGGGLVQAGGSLSLSCAASGFTVKFYAMGWYRQAPGKERELVATISSRGTSTYYADSVKGRFTISRDNAKNTVYLQMNSLKPEDTAVYYCAAAWFPAYQYRYYYWGQGTQVTVSS	high polyreactivity
